Assay results from the supplement of paper PMC11316812.
± gives the standard deviation of the averaged measurements.

Tests used:
MCF7 = assay: percentage of EdU-negative (G0-arrested) nuclei per well, 72 h; higher = more G0 arrest; conditions: reference: sequence is the full UniProt precursor, the tested protein was the secreted form or ectodomain
hTERT-HMEC = assay: as above; conditions: reference: sequence is the full UniProt precursor, the tested protein was the secreted form or ectodomain
[1] = protein concentration 0.0225 µM
[2] = protein concentration 0.03025 µM
[3] = protein concentration 0.3025 µM
[4] = protein concentration 0.03125 µM
[5] = protein concentration 0.3125 µM
[6] = protein concentration 0.0238325 µM
[7] = protein concentration 0.238325 µM
[8] = protein concentration 0.0202725 µM
[9] = protein concentration 0.202725 µM
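Note: secreted proteins added to cultured cells, EdU pulse at the end, nuclei found by Hoechst imaging, EdU status from nuclear versus surrounding ring intensity ratio, PBS as neutral control.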

## MVRMVPVLLSLLLLLGPAVPQENQDGRYSLTYIYTGLSKHVEDVPAFQALGSLNDLQFFRYNSKDRKSQPMGLWRQVEGMEDWKQDSQLQKAREDIFMETLKDIVEYYNDSNGSHVLQGRFGCEIENNRSSGAFWKYYYDGKDYIEFNKEIPAWVPFDPAAQITKQKWEAEPVYVQRAKAYLEEECPATLRKYLKYSKNILDRQDPPSVVVTSHQAPGEKKKLKCLAYDFYPGKIDVHWTRAGEVQEPELRGDVLHNGNGTYQSWVVVAVPPQDTAPYSCHVQHSSLAQPLVVPWEAS
MCF7; [1]
  percentage of EdU-negative: 26.1 ± 2%
MCF7; protein concentration 0.225 µM
  percentage of EdU-negative: 26.1 ± 1.9%
hTERT-HMEC; [1]
  percentage of EdU-negative: 5.49 ± 0.45%
hTERT-HMEC; protein concentration 0.225 µM
  percentage of EdU-negative: 5.19 ± 0.89%

## MGVCGYLFLPWKCLVVVSLRLLFLVPTGVPVRSGDATFPKAMDNVTVRQGESATLRCTIDNRVTRVAWLNRSTILYAGNDKWCLDPRVVLLSNTQTQYSIEIQNVDVYDEGPYTCSVQTDNHPKTSRVHLIVQVSPKIVEISSDISINEGNNISLTCIATGRPEPTVTWRHISPKAVGFVSEDEYLEIQGITREQSGDYECSASNDVAAPVVRRVKVTVNYPPYISEAKGTGVPVGQKGTLQCEASAVPSAEFQWYKDDKRLIEGKKGVKVENRPFLSKLIFFNVSEHDYGNYTCVASNKLGHTNASIMLFGPGAVSEVSNGTSRRAGCVWLLPLLVLHLLLKF [Q9P121]
MCF7; [2]
  percentage of EdU-negative: 24.73 ± 0.092%
MCF7; [3]
  percentage of EdU-negative: 28.9 ± 1.9%
hTERT-HMEC; [2]
  percentage of EdU-negative: 5.01 ± 0.68%
hTERT-HMEC; [3]
  percentage of EdU-negative: 6.84 ± 0.93%

## MWKRWLALALALVAVAWVRAEEELRSKSKICANVFCGAGRECAVTEKGEPTCLCIEQCKPHKRPVCGSNGKTYLNHCELHRDACLTGSKIQVDYDGHCKEKKSVSPSASPVVCYQSNRDELRRRIIQWLEAEIIPDGWFSKGSNYSEILDKYFKNFDNGDSRLDSSEFLKFVEQNETAINITTYPDQENNKLLRGLCVDALIELSDENADWKLSFQEFLKCLNPSFNPPEKKCALEDETYADGAETEVDCNRCVCACGNWVCTAMTCDGKNQKGAQTQTEEEMTRYVQELQKHQETAEKTKRVSTKEI
MCF7; [4]
  percentage of EdU-negative: 25.7 ± 0.72%
MCF7; [5]
  percentage of EdU-negative: 26.2 ± 3.6%
hTERT-HMEC; [4]
  percentage of EdU-negative: 4.68 ± 0.16%
hTERT-HMEC; [5]
  percentage of EdU-negative: 5.53 ± 0.92%

## MTSSLLLAFLLLAPTTVATPRAGGQCPACGGPTLELESQRELLLDLAKRSILDKLHLTQRPTLNRPVSRAALRTALQHLHGVPQGALLEDNREQECEIISFAETGLSTINQTRLDFHFSSDRTAGDREVQQASLMFFVQLPSNTTWTLKVRVLVLGPHNTNLTLATQYLLEVDASGWHQLPLGPEAQAACSQGHLTLELVLEGQVAQSSVILGGAAHRPFVAARVRVGGKHQIHRRGIDCQGGSRMCCRQEFFVDFREIGWHDWIIQPEGYAMNFCIGQCPLHIAGMPGIAASFHTAVLNLLKANTAAGTTGGGSCCVPTARRPLSLLYYDRDSNIVKTDIPDMVVEACGCS
MCF7; [4]
  percentage of EdU-negative: 25.8 ± 2.3%
MCF7; [5]
  percentage of EdU-negative: 27.7 ± 2.4%
hTERT-HMEC; [4]
  percentage of EdU-negative: 4.58 ± 0.61%
hTERT-HMEC; [5]
  percentage of EdU-negative: 5.17 ± 0.32%

## MCVTYHNGTGYCKCPEGFLGEYCQHRDPCEKNRCQNGGTCVAQAMLGKATCRCASGFTGEDCQYSTSHPCFVSRPCLNGGTCHMLSRDTYECTCQVGFTGKECQWTDACLSHPCANGSTCTTVANQFSCKCLTGFTGQKCETDVNECDIPGHCQHGGTCLNLPGSYQCQCLQGFTGQYCDSLYVPCAPSPCVNGGTCRQTGDFTFECNCLPETVRRGTELWERDREVWNGKEHDEN [Q7Z3S9]
MCF7; [1]
  percentage of EdU-negative: 26 ± 0.95%
MCF7; protein concentration 0.225 µM
  percentage of EdU-negative: 24.5 ± 0.49%
hTERT-HMEC; [1]
  percentage of EdU-negative: 5.34 ± 0.17%
hTERT-HMEC; protein concentration 0.225 µM
  percentage of EdU-negative: 5.36 ± 0.21%

## MLPCLVVLLAALLSLRLGSDAHGTELPSPPSVWFEAEFFHHILHWTPIPNQSESTCYEVALLRYGIESWNSISNCSQTLSYDLTAVTLDLYHSNGYRARVRAVDGSRHSNWTVTNTRFSVDEVTLTVGSVNLEIHNGFILGKIQLPRPKMAPANDTYESIFSHFREYEIAIRKVPGNFTFTHKKVKHENFSLLTSGEVGEFCVQVKPSVASRSNKGMWSKEECISLTRQYFTVTNVIIFFAFVLLLSGALAYCLALQLYVRRRKKLPSVLLFKKPSPFIFISQRPSPETQDTIHPLDEEAFLKVSPELKNLDLHGSTDSGFGSTKPSLQTEEPQFLLPDPHPQADRTLGNREPPVLGDSCSSGSSNSTDSGICLQEPSLSPSTGPTWEQQVGSNSRGQDDSGIDLVQNSEGRAGDTQGGSALGHHSPPEPEVPGEEDPAAVAFQGYLRQTRCAEEKATKTGCLEEESPLTDGLGPKFGRCLVDEAGLHPPALAKGYLKQDPLEMTLASSGAPTGQWNQPTEEWSLLALSSCSDLGISDWSFAHDLAPLGCVAAPGGLLGSFNSDLVTLPLISSLQSSE
MCF7; [6]
  percentage of EdU-negative: 27.3 ± 1.9%
MCF7; [7]
  percentage of EdU-negative: 25.3 ± 2.5%
hTERT-HMEC; [6]
  percentage of EdU-negative: 5.02 ± 0.64%
hTERT-HMEC; [7]
  percentage of EdU-negative: 5.96 ± 0.77%

## MERDGCAGGGSRGGEGGRAPREGPAGNGRDRGRSHAAEAPGDPQAAASLLAPMDVGEEPLEKAARARTAKDPNTYKVLSLVLSVCVLTTILGCIFGLKPSCAKEVKSCKGRCFERTFGNCRCDAACVELGNCCLDYQETCIEPEHIWTCNKFRCGEKRLTRSLCACSDDCKDKGDCCINYSSVCQGEKSWVEEPCESINEPQCPAGFETPPTLLFSLDGFRAEYLHTWGGLLPVISKLKKCGTYTKNMRPVYPTKTFPNHYSIVTGLYPESHGIIDNKMYDPKMNASFSLKSKEKFNPEWYKGEPIWVTAKYQGLKSGTFFWPGSDVEINGIFPDIYKMYNGSVPFEERILAVLQWLQLPKDERPHFYTLYLEEPDSSGHSYGPVSSEVIKALQRVDGMVGMLMDGLKELNLHRCLNLILISDHGMEQGSCKKYIYLNKYLGDVKNIKVIYGPAARLRPSDVPDKYYSFNYEGIARNLSCREPNQHFKPYLKHFLPKRLHFAKSDRIEPLTFYLDPQWQLALNPSERKYCGSGFHGSDNVFSNMQALFVGYGPGFKHGIEADTFENIEVYNLMCDLLNLTPAPNNGTHGSLNHLLKNPVYTPKHPKEVHPLVQCPFTRNPRDNLGCSCNPSILPIEDFQTQFNLTVAEEKIIKHETLPYGRPRVLQKENTICLLSQHQFMSGYSQDILMPLWTSYTVDRNDSFSTEDFSNCLYQDFRIPLSPVHKCSFYKNNTKVSYGFLSPPQLNKNSSGIYSEALLTTNIVPMYQSFQVIWRYFHDTLLRKYAEERNGVNVVSGPVFDFDYDGRCDSLENLRQKRRVIRNQEILIPTHFFIVLTSCKDTSQTPLHCENLDTLAFILPHRTDNSESCVHGKHDSSWVEELLMLHRARITDVEHITGLSFYQQRKEPVSDILKLKTHLPTFSQED
MCF7; [8]
  percentage of EdU-negative: 25.1 ± 0.47%
MCF7; [9]
  percentage of EdU-negative: 24.77 ± 0.21%
hTERT-HMEC; [8]
  percentage of EdU-negative: 4.82 ± 0.41%
hTERT-HMEC; [9]
  percentage of EdU-negative: 5.77 ± 0.8%
